# Measurements published in paper PMC12557607, “The mitochondrial disulphide relay substrate FAM136A safeguards IMS proteostasis and cellular fitness” (Redox Biology, 2025).
# B1: FAM136A (natural protein)
# chain: not shown
# notes: FAM136A, endogenous in HEK293 cells; soluble protein of the mitochondrial intermembrane space; also called endogenous FAM136A; source: endogenous, HEK293 lysate
# Biological target: the molecule itself
# Assay: SEC; cleared native HEK293 lysate (100 mM sodium phosphate pH 8.0, 100 mM NaCl, 1 % Triton X-100) on HiLoad 16/600 Superdex 200; fractions blotted for endogenous FAM136A
protein,measurement,value
B1,stoichiometry N,~2
